Measurements from patent US12465646B2, “Linkers” (Oxford University Innovation Limited, priority 2018, dated 2025).
Where no end group is shown, it is not given here. [ ]: non-standard residue; d: D form. GABA = NCCCC(=O)O; βAla = NCCC(=O)O

Experiments:
[1] = Recovery time of mice after intravenous injection of peptide-PMO-CAG7; assay type: in vivo, C57BL6 mice
Protocol: Animal experiments and ASO injections. Experiments were carried out in the University of Oxford according to UK legislation. The intravenous injections in HSA-LR C57BL/6 mice were performed by single or repeated administrations via the tail vein. Doses of 30, 12.5, 7.5 and 5 mg/kg of peptide-PMO-CAG7 (SEQ ID NO: 81) were diluted in 0.9% saline and given at a volume of 5-6 μL/g of body weight. KIM-1 levels in C57BL6 female mice measured by ELISA (R&D cat #MKM100) with samples diluted to fit within standard curve. Values were normalised to urinary creatinine levels (Harwell) to account for urine protein concentration.

[2] = CPP carrier; cited from earlier work
[3] = system: exon skipping; settings: in a conjugate with a therapeutic molecule; cited from earlier work
[4] = system: human hepatocytes; assay: Hepatocyte cell viability; assay type: cell-based; settings: 40 μM
Protocol: Immortalized myoblasts from healthy individual or DM1 patient with 2600 CTG repeats were cultivated in a growth medium consisting of a mix of M199:DMEM (1:4 ratio; Life technologies) supplemented with 20% FBS (Life technologies), 50 μg/ml gentamycin (Life technologies), 25 μg/ml fetuin, 0.5 ng/ml bFGF, 5 ng/ml EGF and 0.2 μg/ml dexamethasone (Sigma-Aldrich). Myogenic differentiation was induced by switching confluent cell cultures to DMEM medium supplemented with 5 μg/ml insulin (Sigma-Aldrich) for myoblasts. For treatment, WT or DM1 cells are differentiated for 4 days. Then, medium was changed with fresh differentiation medium with peptide-PMOs at a 1, 2, 5 10, 20 or 40 μM concentration. Cells were harvested for analysis 48 h after treatment. Cell viability was quantified in after 2 days of transfection of peptide-PMOs at 40 μM in human hepatocytes or at a 1, 2, 5 10, 20 or 40 μM concentration in human myoblasts using a fluorescent-based assay (Promega).

Substance: Ac-RBRRBRFQILYBRBR-E (Ac-R[βAla]RR[βAla]RFQILY[βAla]R[βAla]RE; also: Glu linker to [CAG]7 PMO, attachment not given here) [DPEP1.9b]
- recovery time after injection, time AV ± SD ([1]; 30 mg/kg, WT mouse, 8-12 weeks): 15 min

Substance: Ac-RBRRBRRFQILYRBHBH-Ab (Ac-R[βAla]RR[βAla]RRFQILYR[βAla]H[βAla]H-{GABA-(CAG)7 PMO}) [DPEP3.1a]
- recovery time after injection, time AV ± SD ([1]; 30 mg/kg, WT mouse, 8-12 weeks): 10 min

Substance: Ac-RRRRRR-(G) (Ac-RRRRRRG; also: conjugated therapeutic molecule via glycine linker) [R6Gly]
- toxicity [2]: reduced toxicity
- efficacy in inducing exon skipping [3]: reduced efficacy

Substance: Ac-RBRRBRFQILYBRBR-B [DPEP1.9]
- recovery time after injection, time AV ± SD ([1]; 7.5 mg/kg, HSA-LR mouse, 8-12 weeks): 0 min
- recovery time after injection, time AV ± SD ([1]; 30 mg/kg, HSA-LR mouse, 30 weeks): >60 min
- recovery time after injection, time AV ± SD ([1]; 4× 7.5 mg/kg repeated injections, HSA-LR mouse, 8-12 weeks): 0 min
- recovery time after injection, time AV ± SD ([1]; 6× 5 mg/kg repeated injections, HSA-LR mouse, 8-12 weeks): 0 min

Substance: Ac-RXRRBRRXR-YQFLI-RXRBRXR-(B) [pip6a, reference compound]
- recovery time after injection, time AV ± SD ([1]; 12.5 mg/kg, HSA-LR mouse, 8-12 weeks): >60 min
- percentage hepatocyte cell viability [4]: cell mortality
